According to PMC5341072, “Activity screening of environmental metagenomic libraries reveals novel carboxylesterase families” (Scientific Reports, 2017):

Legend:
Format in all cases: biochemical, uncultured organism
[1] = substrate: O=C1Nc2ccccc2C1=O; assay: amidohydrolase activity, Michaelis-Menten or Hill fit; conditions: metal-dependent amidohydrolase activity
From the text: amidohydrolase activity, Michaelis-Menten or Hill fit on MGS0169

[2] = substrate: CC(=O)Oc1ccc([N+](=O)[O-])cc1; assay: spectrophotometric ester hydrolysis, Michaelis-Menten or Hill fit; conditions: metal-dependent; 0.1 mM MnCl2 stated for the Figure 4 and 7 assays
From the text: (§1) spectrophotometric ester hydrolysis, Michaelis-Menten or Hill fit on MGS0169

[3] = substrate: CC(=O)Oc1cccc2ccccc12; assay: as above; conditions: metal-dependent; 0.1 mM MnCl2 stated for the Figure 4 and 7 assays
From the text: as §1

[4] = substrate: CCC(=O)Oc1cccc2ccccc12; assay: as above; conditions: metal-dependent; 0.1 mM MnCl2 stated for the Figure 4 and 7 assays
From the text: as §1

B1: MGS0169 (uncultured organism) (protein)
chain: MAHAEGPALHPHEKLNNWGKWGDDDQRGAANYITPERIVAAARLIQTGKTFSLAIPIDSNGPVFPPRLPPHHTMEITGADYVADPGASPFGKSPIRFADDYIYMPLQGSTQWDALSHGWYGESLYNGVPEAAIRSSGAGGATKLGIENVKTSFLGRGVLVDIVRFKGGSLPEGYTITRADLEGALAKQKSKLLPGDILVIRTGLVESWYDLDPVGRASFFLNPMTGIGSDTVPWIHEQRLAGVAADNIALERVPHERAPELALPVHGNLLRDLGVYIGEIWWLEELAKDCAQDGRYEFFLAAQPLYIPGAVGSPLNPIAVK
notes: N-terminal 6His tag (modified pET15b), E. coli BL21(DE3), Ni-NTA purified; predicted 37 kDa, tetramer; crystal construct 21-341 aa
Work on B1 yielded a Km [1] of 19700 ± 4200 µM, a kcat [1] of 1.9 ± 0.2 s⁻¹ and a kcat/Km [1] of 100 M⁻¹ s⁻¹. The Km [2] was 400 ± 290 µM, the kcat [2] was 71.2 ± 1.7 s⁻¹ and the kcat/Km [2] was 180000 M⁻¹ s⁻¹. The Km [3] was 490 ± 110 µM, the kcat [3] was 14.9 ± 1.2 s⁻¹ and the kcat/Km [3] was 30000 M⁻¹ s⁻¹. For the same protein, the Km [4] was 420 ± 120 µM, the kcat [4] was 14.7 ± 1.4 s⁻¹ and the kcat/Km [4] was 40000 M⁻¹ s⁻¹.
